Measured values: patent US20210371538A1 (Genmab, published 2021)

Target: T1, CD20 (human, UniProt P11836 1-297, limits assumed)
T1 construct: The KD sentence says only 'CD20'; also called human CD20; B-cell antigen CD20
T1 sequence (looked up): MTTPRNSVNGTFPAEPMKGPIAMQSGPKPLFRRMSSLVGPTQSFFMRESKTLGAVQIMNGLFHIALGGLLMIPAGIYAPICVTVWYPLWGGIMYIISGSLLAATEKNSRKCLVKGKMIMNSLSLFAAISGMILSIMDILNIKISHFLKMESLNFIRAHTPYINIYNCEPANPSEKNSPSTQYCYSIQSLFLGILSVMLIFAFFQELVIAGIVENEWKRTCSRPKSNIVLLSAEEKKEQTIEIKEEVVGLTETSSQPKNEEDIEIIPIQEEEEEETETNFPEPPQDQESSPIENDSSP
Experiment: in vitro measurement, method not stated; used as a PK/PD model parameter

B1: DuoBody-CD3×CD20 (bispecific antibody, human IgG1, kappa, lambda)
heavy 1: not shown
light 1: not shown
heavy 2: EVQLVESGGGLVQPDRSLRLSCAASGFTFHDYAMHWVRQAPGKGLEWVSTISWNSGTIGYADSVKGRFTISRDNAKNSLYLQMNSLRAEDTALYYCAKDIQYGNYYYGMDVWGQGTTVTVSSASTKGPSVFPLAPSSKSTSGGTAALGCLVKDYFPEPVTVSWNSGALTSGVHTFPAVLQSSGLYSLSSVVTVPSSSLGTQTYICNVNHKPSNTKVDKRVEPKSCDKTHTCPPCPAPEFEGGPSVFLFPPKPKDTLMISRTPEVTCVVVAVSHEDPEVKFNWYVDGVEVHNAKTKPREEQYNSTYRVVSVLTVLHQDWLNGKEYKCKVSNKALPAPIEKTISKAKGQPREPQVYTLPPSREEMTKNQVSLTCLVKGFYPSDIAVEWESNGQPENNYKTTPPVLDSDGSFFLYSRLTVDKSRWQQGNVFSCSVMHEALHNHYTQKSLSLSPG
light 2: not shown
notes: Full-length IgG1 bispecific with an inert Fc (L234F, L235E, D265A), made by controlled Fab-arm exchange of IgG1-CD3-FEAL and IgG1-CD20-FEAR; One heavy/light pair for each arm; also called epcoritamab; GEN3013
Kd: 5.4 nM
